Assay [1] addresses manY component of the mannose permease complex (E. coli) (UniProt P69801).
The target in assay [2] is manZ component of the mannose permease complex (E. coli) (UniProt P69805).

Take Lambda gpH (Uniprot P03736): the apparent titer of packaged phagemids in MG1655 and KEIO manY (log decrease in the apparent titer) in assay [1] came to 2. Also, the apparent titer of packaged phagemids in MG1655 and KEIO manZ (log decrease in the apparent titer) in assay [2] was 2.

The record behind these values is patent publication US20210196828A1.
